Test results reported in paper PMC5021990 (Biochemical and biophysical research communications, 2016).

How the values were obtained:
[1] = target: Francisella novicida LpxA (UDP-N-acetylglucosamine acyltransferase), C-terminally His6-tagged (Francisella novicida); experiment: SEC
FnLpxA = FnLpxA (Francisella tularensis, UniProt A0Q7Y0); conditions: 20 μM R,S-3-hydroxypalmitoyl-ACP, 100 μM [α-32P]UDP-GlcNAc, 40 mM HEPES pH 7.4, 100 mM NaCl, 30 °C; labelled compound

Row | Compound | stoichiometry N [1] | TLC radioassay of acyl transfer, PhosphorImager (FnLpxA)
1 | Francisella novicida LpxA (UDP-N-acetylglucosamine acyltransferase), C-terminally His6-tagged (enzyme) | 3 | 
2 | CC(=O)N[C@H]1[C@@H](OP(=O)(O)OP(=O)(O)OC[C@H]2O[C@@H](n3ccc(=O)[nH]c3=O)[C@H](O)[C@@H]2O)O[C@H](CO)[C@@H](O)[C@@H]1O [UDP-GlcNAc] |  | purified FnLpxA transfers a 3-hydroxypalmitoyl group from 3-hydroxypalmitoyl-ACP to the 3-OH of UDP-GlcNAc
